Values quoted from earlier work in PMC2817915.
Several values for one entry are separate records, joined by “and”; a condition that tells them apart may be missing. Equal values may be shown once.

Legend:
Conditions in all cases: native HEWL; ligand state not stated
Asp101 = Asp101 (UniProt position 119, KKIVSDGNGMN)
Asp119 = Asp119 (UniProt position 137, RCKGTDVQAWI)
Asp18 = Asp18 (UniProt position 36, KRHGLDNYRGY)
Asp48 = Asp48 (UniProt position 66, TNRNTDGSTDY)
Asp52 = Asp52 (UniProt position 70, TDGSTDYGILQ)
Asp66 = Asp66 (UniProt position 84, RWWCNDGRTPG)
Asp87 = Asp87 (UniProt position 105, ALLSSDITASV)
Glu35 = Glu35 (UniProt position 53, CAAKFESNFNT)
Glu7 = Glu7 (UniProt position 25, VFGRCELAAAM)
His15 = His15 (UniProt position 33, AAMKRHGLDNY)

Which results are given for “Hen egg-white lysozyme (HEWL, lysozyme C) (Gallus gallus)”?
pKa (Asp101): 4.09; pKa (Asp119): 3.20; pKa (Asp18): 2.66; pKa (Asp48): 2.50; pKa (Asp52): 3.68 and 3.6−3.76; pKa (Asp66): 2.00; pKa (Asp87): 2.07; pKa (Glu35): 6.20; pKa (Glu7): 2.85; pKa (His15): 5.71
